T1: Cft1 (recombinant, polymerase module) (yeast, UniProt Q06632 1-1357)
T1 construct: Cft1, yeast; ordered in the cryo-EM map: residues 1 to 1357 (several loops not visible); source: overexpressed in insect cells, purified as part of the polymerase module
T1 sequence: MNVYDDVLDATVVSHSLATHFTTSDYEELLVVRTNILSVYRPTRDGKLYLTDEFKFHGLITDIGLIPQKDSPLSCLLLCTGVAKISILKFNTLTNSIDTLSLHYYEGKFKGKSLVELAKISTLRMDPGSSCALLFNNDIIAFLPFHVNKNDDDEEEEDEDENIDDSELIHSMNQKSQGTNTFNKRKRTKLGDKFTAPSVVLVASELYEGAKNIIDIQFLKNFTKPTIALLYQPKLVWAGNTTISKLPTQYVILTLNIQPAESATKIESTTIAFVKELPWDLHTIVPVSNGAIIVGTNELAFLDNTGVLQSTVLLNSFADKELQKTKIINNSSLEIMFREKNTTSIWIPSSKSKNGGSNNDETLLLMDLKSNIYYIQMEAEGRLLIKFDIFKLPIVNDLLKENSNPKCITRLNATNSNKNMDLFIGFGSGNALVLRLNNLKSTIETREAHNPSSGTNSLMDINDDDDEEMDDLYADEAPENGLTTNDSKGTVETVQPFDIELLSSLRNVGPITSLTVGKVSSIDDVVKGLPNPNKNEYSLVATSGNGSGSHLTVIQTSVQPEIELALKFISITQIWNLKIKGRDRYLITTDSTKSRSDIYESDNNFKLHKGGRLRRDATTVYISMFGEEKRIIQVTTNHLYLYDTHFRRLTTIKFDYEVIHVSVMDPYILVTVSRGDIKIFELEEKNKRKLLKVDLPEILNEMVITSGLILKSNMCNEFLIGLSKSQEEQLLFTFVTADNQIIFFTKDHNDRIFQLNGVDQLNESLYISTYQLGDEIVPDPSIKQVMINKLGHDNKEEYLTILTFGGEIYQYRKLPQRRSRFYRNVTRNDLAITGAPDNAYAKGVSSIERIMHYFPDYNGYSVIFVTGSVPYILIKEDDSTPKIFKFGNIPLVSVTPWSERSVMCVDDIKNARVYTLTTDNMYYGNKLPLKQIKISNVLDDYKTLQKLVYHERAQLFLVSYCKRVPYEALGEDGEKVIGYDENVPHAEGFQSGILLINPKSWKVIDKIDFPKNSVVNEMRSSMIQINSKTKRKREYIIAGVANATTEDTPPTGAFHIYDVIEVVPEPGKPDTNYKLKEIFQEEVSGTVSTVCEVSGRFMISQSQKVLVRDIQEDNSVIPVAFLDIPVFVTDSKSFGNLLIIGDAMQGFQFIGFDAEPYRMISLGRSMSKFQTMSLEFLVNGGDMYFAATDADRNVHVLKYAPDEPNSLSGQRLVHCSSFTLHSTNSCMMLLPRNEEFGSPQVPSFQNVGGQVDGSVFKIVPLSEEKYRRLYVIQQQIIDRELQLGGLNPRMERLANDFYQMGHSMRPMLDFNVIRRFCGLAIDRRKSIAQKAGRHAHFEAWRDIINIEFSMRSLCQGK

B1: Fip1 (recombinant, polymerase module) (natural protein, yeast, UniProt P45976 1-327, looked up)
chain: MSSSEDEDDKFLYGSDSELALPSSKRSRDDEADAGASSNPDIVKRQKFDSPVEETPATARDDRSDEDIYSDSSDDDSDSDLEVIISLGPDPTRLDAKLLDSYSTAATSSSKDVISVATDVSNTITKTSDERLITEGEANQGVTATTVKATESDGNVPKAMTGSIDLDKEGIFDSVGITTIDPEVLKEKPWRQPGANLSDYFNYGFNEFTWMEYLHRQEKLQQDYNPRRILMGLLSLQQQGKLNSANDTDSNLGNIIDNNNNVNNANMSNLNSNMGNSMSGTPNPPAPPMHPSFPPLPMFGSFPPFPMPGMMPPMNQQPNQNQNQNSK
notes: Fip1, yeast; present in the four-subunit complex but not visible in the cryo-EM map; source: overexpressed in insect cells, purified as part of the polymerase module
B2: Yth1 (recombinant, polymerase module) (natural protein, yeast)
chain: SLIHPDTAKYPFKFEPFLRQEYSFSLDPDRPICEFYNSREGPKSCPRGPLCPKKHVLPIFQNKIVCRHWLRGLCKKNDQCEYLHEYNLRKMPECVFFSKNGYCTQSPDCQYLHIDPASKIPKCENYEMGFCPLGSSCPRRHIKKVFCQRYMTGFCPLGKDECDMEHPQFIIPDEGSKLRIKRDDEINTRKMDEEKERRLNAIINGEV
notes: Yth1, yeast; ordered in the cryo-EM map: residues 1 to 94; zinc fingers 3 to 5 (residues 95 to 208) not visible; source: overexpressed in insect cells, purified as part of the polymerase module
B3: Pap1 (recombinant, polymerase module) (enzyme, yeast, UniProt P29468 1-568, looked up)
chain: MSSQKVFGITGPVSTVGATAAENKLNDSLIQELKKEGSFETEQETANRVQVLKILQELAQRFVYEVSKKKNMSDGMARDAGGKIFTYGSYRLGVHGPGSDIDTLVVVPKHVTREDFFTVFDSLLRERKELDEIAPVPDAFVPIIKIKFSGISIDLICARLDQPQVPLSLTLSDKNLLRNLDEKDLRALNGTRVTDEILELVPKPNVFRIALRAIKLWAQRRAVYANIFGFPGGVAWAMLVARICQLYPNACSAVILNRFFIILSEWNWPQPVILKPIEDGPLQVRVWNPKIYAQDRSHRMPVITPAYPSMCATHNITESTKKVILQEFVRGVQITNDIFSNKKSWANLFEKNDFFFRYKFYLEITAYTRGSDEQHLKWSGLVESKVRLLVMKLEVLAGIKIAHPFTKPFESSYCCPTEDDYEMIQDKYGSHKTETALNALKLVTDENKEEESIKDAPKAYLSTMYIGLDFNIENKKEKVDIHIPCTEFVNLCRSFNEDYGDHKVFNLALRFVKGYDLPDEVFDENEKRPSKKSKRKNLDARHETVKRSKSDAASGDNINGTTAAVDVN
notes: Pap1 poly(A) polymerase, yeast; source: overexpressed in insect cells, purified as part of the polymerase module
B4: Pfs2 (recombinant, polymerase module) (natural protein, yeast)
chain: MDGHNQNQYQNQNQIQQSQQPPLKKYVTQRRSVDVSSPYINLYYNRRHGLPNLVVEPETSYTIDIMPPNAYRGRDRVINLPSKFTHLSSNKVKHVIPAIQWTPEGRRLVVATYSGEFSLWNASSFTFETLMQAHDSAVTTMKYSHDSDWMISGDADGMIKIWQPNFSMVKEIDAAHTESIRDMAFSSNDSKFVTCSDDNILKIWNFSNGKQERVLSGHHWDVKSCDWHPEMGLIASASKDNLVKLWDPRSGNCISSILKFKHTVLKTRFQPTKGNLLMAISKDKSCRVFDIRYSMKELMCVRDETDYMTLEWHPINESMFTLACYDGSLKHFDLLQNLNEPILTIPYAHDKCITSLSYNPVGHIFATAAKDRTIRFWTRARPIDPNAYDDPTYNNKKINGWFFGINNDINAVREKSEFGAAPPPPATLEPHALPNMNGFINKKPRQEIPGIDSNIKSSTLPGLSI
notes: Pfs2, yeast; ordered in the cryo-EM map: residues 27 to 411; source: overexpressed in insect cells, purified as part of the polymerase module

How the values were obtained:
Conditions in all cases: both partners purified
[1] = biological target: B3; experiment: cross-linking; cross-linking mass spectrometry of the polymerase module, to determine where Pap1 and Fip1 bind
[2] = biological target: B4; experiment: cryo-EM structure; recombinant four-subunit complex (Cft1, Pfs2, Yth1, Fip1) overexpressed in insect cells; overall resolution 3.5 Å
[3] = biological target: T1, Cft1 (recombinant, polymerase module); experiment: as above
[4] = biological target: B1; experiment: cross-linking; cross-linking mass spectrometry of the polymerase module, to determine where Pap1 and Fip1 bind
[5] = biological target: T1, Cft1 (recombinant, polymerase module); experiment: as above

Row | binding result [1] | binding result [2] | binding result [3] | binding result [4] | binding result [5] | Binder
1 | binds |  |  |  |  | B1
2 | binds | binds | binds | binds |  | B2
3 |  |  |  |  | binds | B3
4 | binds |  | binds |  |  | B4

— PMC5788269, “Architecture of eukaryotic mRNA 3′-end processing machinery” (Science (New York, N.y.), 2017)
